Patent publication US20250282866A1 (VIGIL NEUROSCIENCE, published 2025)

B1: V31 (antibody, V domains shown)
VH: EVQLVQSGAEVKKPGESLKISCKGSGYSFTSYWIAWVRQMPGKGLEWMGIIYPGDSETRYSPSFQGQVTISADKSISTAYLQWSSLKASDTAMYFCARQRTFYYDSSDYFDYWGQGTLVTVSS
VL: DIQMTQSPSSVSASVGDRVTITCRASQGISSWLAWYQQKPGKAPKLLIYAASSLQNGVPSRFSGSGSGTDFTLTISSLQPEDFATYFCQQADSFPRTFGQGTKLEIK
B2: V77 (antibody, V domains shown)
VH: EVQLVQSGAEVKKPGESLKISCKGSGYSFTSYWIAWVRQMPGKGLEWMGIIYPGDSDTRYSPSFQGQVTISADKSISTAYLQWSSLKASDTAMYFCARQRTFYYDSSDYFDYWGQGTLVTVSS
VL: DIQMTQSPSSVSASVGDRVTITCRASQGISSWLAWYQQKPGKAPKLLIYAASSRQNGVPSRFSGSGSGTDFTLTISSLQPEDFATYFCQQADSFPRTFGQGTKLEIK
B3: V84 (antibody, V domains shown)
VH: EVQLVQSGAEVKKPGESLKISCKGSGYGFTSYWIAWVRQMPGKGLEWMGIIYPGDSDTRYSPSFQGQVTISADKSISTAYLQWSSLKASDTAMYFCARQRTFYYDSSDYSDYWGQGTLVTVSS
VL: DIQMTQSPSSVSASVGDRVTITCRASQGISSWLAWYQQKPGKAPKLLIYGASSLQNGVPSRFSGSGSGTDFTLTISSLQPEDFATYFCQQADSFPRTFGQGTKLEIK
B4: V85 (antibody, V domains shown)
VH: EVQLVQSGAEVKKPGESLKISCKGSGYSFRSYWIAWVRQMPGKGLEWMGTIYPGDSDTRYSPSFQGQVTISADKSISTAYLQWSSLKASDTAMYFCARSRTFYYDSSDYFDYWGQGTLVTVSS
VL: DIQMTQSPSSVSASVGDRVTITCRASQGISSWLAWYQQKPGKAPKLLIYAASSRQNGVPSRFSGSGSGTDFTLTISSLQPEDFATYFCQQADSFPRTFGQGTKLEIK
B5: V86 (antibody, V domains shown)
VH: EVQLVQSGAEVKKPGESLKISCKGSGYSFGSYWLAWVRQMPGKGLEWMGIIYPGDSDTRYSPSFEGQVTISADKSISTAYLQWSSLKASDTAMYFCARSRTFYYDSSDYFDYWGQGTLVTVSS
VL: DIQMTQSPSSVSASVGDRVTITCRASQGISSWLAWYQQKPGKAPKLLIYAASSRQNGVPSRFSGSGSGTDFTLTISSLQPEDFATYFCQQADSFPRTFGQGTKLEIK
B6: V87 (antibody, V domains shown)
VH: EVQLVQSGAEVKKPGESLKISCKGSGYSFRSYWIAWVRQMPGKGLEWMGIIYPGDSDVRYSPDFQGQVTISADKSISTAYLQWSSLKASDTAMYFCARSRTFYYDSSDYFDYWGQGTLVTVSS
VL: DIQMTQSPSSVSASVGDRVTITCRASQGISSWLAWYQQKPGKAPKLLIYAASSLQWGVPSRFSGSGSGTDFTLTISSLQPEDFATYFCQQADSFPRTFGQGTKLEIK
B7: V88 (antibody, V domains shown)
VH: EVQLVQSGAEVKKPGESLKISCKGSGYSFGSYWIAWVRQMPGKGLEWMGIIYPGDSDTRYSPSFQGQVTISADKSISTAYLQWSSLKASDTAMYFCARQRTFYYDSSDYFDYWGQGTLVTVSS
VL: DIQMTQSPSSVSASVGDRVTITCRASQGISSWLAWYQQKPGKAPKLLIYAASRLQRGVPSRFSGSGSGTDFTLTISSLQPEDFATYFCQQADSSPRTFGQGTKLEIK
B8: V89 (antibody, V domains shown)
VH: EVQLVQSGAEVKKPGESLKISCKGSGYSFTSYWIAWVRQMPGKGLEWMGIIYPGDSDTRYSPSFQGQVTISADKSISTAYLQWSSLKASDTAMYFCARQRTFYYDSSDYFDYWGQGTLVTVSS
VL: DIQMTQSPSSVSASVGDRVTITCRASQGISSWLAWYQQKPGKAPKLLIYAASSLQNGVPSRFSGSGSGTDFTLTISSLQPEDFATYFCQQADSHPRTFGQGTKLEIK

Columns and labels:
human TREM2 [1] = molecular target: T1, human TREM2 (human, UniProt Q9NZC2 19-174, limits assumed); test: 1st screen (110 nM or 10 nM)
T1 construct: also called triggering receptor expressed on myeloid cells 2
T1 sequence: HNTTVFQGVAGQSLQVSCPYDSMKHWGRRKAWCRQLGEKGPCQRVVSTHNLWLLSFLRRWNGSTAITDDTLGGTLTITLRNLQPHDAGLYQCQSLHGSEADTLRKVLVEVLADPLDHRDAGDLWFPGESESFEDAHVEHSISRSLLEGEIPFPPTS

human TREM2 [2] = molecular target: T1, human TREM2; test: 2nd screen, printed under 10 nM
human TREM2 [3] = molecular target: T1, human TREM2; test: 2nd screen 2 nM
human TREM2 [4] = molecular target: T1, human TREM2; test: 2nd screen 10 nM

Binder | Binding Signal (fold over 6E7 Parental antibody) (human TREM2 [1]) [fold] | Binding Signal (fold over 6E7 Parental antibody) (human TREM2 [2]) [fold] | Binding Signal (fold over 6E7 Parental antibody) (human TREM2 [3]) [fold] | Binding Signal (fold over 6E7 Parental antibody) (human TREM2 [4]) [fold]
B1 | 0.61 | 0.73 |  | 
B2 | 1.43 |  | 0.83 | 1.38
B3 | 1.44 |  | 1.45 | 1.62
B4 | 5.41 |  | 5.41 | 5.37
B5 | 4.8 |  | 5.17 | 5.02
B6 | 3.84 |  | 4.86 | 3.93
B7 | 4.92 |  | 5.57 | 5.3
B8 | 1.33 |  | 0.94 | 1.46
